We go through 1 molecule from patent US20040018515A1, “Compositions selective for adenosine diphosphate and methods of using same” (priority 2002, published 2004).

The nature of data set [1]: ADP SPA screening of ADP aptamer clones. Format: binding. Particulars: 1 μM 3H-ADP; vs. clone R0; FIG. 27. The procedure: Mini-prepped plasmid DNA and corresponding sequence (Table 4) were obtained from Lark Technologies. Any sequence that differed by more than two nucleotides from all other ADP aptamer clones was considered to be unique for the purposes of screening. “Unique” clones were PCR amplified from purified plasmid DNA using the original 5′-primer used in the selections (JD18.25B; SEQ ID NO: 17) and a new 3′-primer, 5′-[…]-3′ (JD18.122.A; 200 nM scale, 46-mer) Tm ˜58° C.; SEQ ID NO: 72). This primer adds a 3′-sequence tag to the transcribed RNA molecules which allows the aptamer clones to be immobilized onto the surface of an NEN streptavidin coated flash plate via base pairing with a biotinylated DNA capture oligo (MK08.112A; 5′-biotin-[…]-3′; SEQ ID NO: 73).
NEN flashplates used in the ADP SPA screen and competition binding studies were prepared by incubating the individual wells with 40 pmol of MK08.112A biotinylated capture probe in 22 μl of PBS Buffer: BupH (0.05% tRNA, 0.025% Tween 20) with and shaking at 650 RPM, 15 min. […] Treated wells were incubated with 30 μl of 1 μM ^3H-ADP in 1× Selection Buffer for 30 s with shaking at 650 RPM and then assessed for ADP-mediated signal by quantification on a TopCount, ^3H SPA scintillation counter.
Clones were initially assessed for the ability to yield ADP-mediated signal in the ADP SPA.

The nature of data set [2]: SPA competitive binding of ADP aptamer clones (cold ADP vs other adenosine nucleoside derivatives). Particulars: competitive binding analysis; FIG. 29. The procedure: NEN flashplates used in the ADP SPA screen and competition binding studies were prepared by incubating the individual wells with 40 pmol of MK08.112A biotinylated capture probe in 22 μl of PBS Buffer: BupH (0.05% tRNA, 0.025% Tween 20) with and shaking at 650 RPM, 15 min. Excess capture probe was removed from the wells by washing with 1×PBS 3 times and inverting plate with force to remove liquid and blotting them dry on paper towels. Crude transcription of RNA transcribed with capture probe sequence (5 μl) in 25 μl 1×PBS was incubated in designated wells with shaking at 650 RPM for 30 min. Excess aptamer was removed by washing with 1×PBS 3 times and blotting as before. Treated wells were incubated with 30 μl of 1 μM ^3H-ADP in 1× Selection Buffer for 30 s with shaking at 650 RPM and then assessed for ADP-mediated signal by quantification on a TopCount, ^3H SPA scintillation counter.
The best ADP binders, e.g., clones 1, 2, 11, 12, 14, and 16 were subsequently tested for ADP/ATP discrimination by competition with either cold ADP or ATP (FIG. 28). Clones such as F01 (clone #11), whose SPA signal was competed off with the lowest concentration of ADP, i.e., the best ADP binder, and correspondingly the highest concentration of ATP, i.e., the worst ATP binder, were considered to be ADP selective.

Data set [3] is described as follows: SPA KD determination for ADP aptamer F01, ATP. The format is binding. The procedure: (§1) The specificity of the ADP aptamer clone F01 was characterized using a variety of nucleoside analogues and mimetics as shown in FIG. 30. NEN flashplates used in the ADP assay were prepared as described above using 150 pmol ADP clone F01 ( in 20 μl 1×PBS incubated in designated wells with shaking at 650 RPM for 30 min). Excess F01 aptamer was removed by washing with 1×PBS 3-times and blotting as before. Treated wells were incubated with 30 μl of 1 μM ^3H-ADP in 1× Selection Buffer for 30 s with shaking at 650 RPM and then assessed for ADP-mediated signal by quantification on a TopCount, ^3H SPA scintillation counter. Thereafter, 1 μl of each test compound was added to the appropriate wells and the plate shaken at 650 RPM for 30 s prior to recounting on TopCount, ^3H SPA scintillation counter. Titration of each test compound was continued with subsequent 1 μl additions up to 10 mM final concentration. The dissociation constant KD was estimated from the IC50 of the competitive binding curve.
This impurity confounds precise determination of ADP aptamer selectivity by SPA competition.

Data set [4] in a line: SPA KD determination for ADP aptamer F01, nucleoside analogs and mimetics. Format: binding. Particulars: SPA competition; KD estimated from IC50; FIG. 30. The procedure: as §1

B1: GGACGGATCGCGTGATGACGAGGGGAATGAACACCCCGGACAATCAGACACGGTCATCTCACACACCTCCCTGA (nucleic acid)
chain: GGACGGATCGCGTGATGACGAGGGGAATGAACACCCCGGACAATCAGACACGGTCATCTCACACACCTCCCTGA
modifications: RNA, all phosphodiester, T or U not given here
Turning to B1, in data set [1], the “ADP-mediated signal in the SPA screening assay above background signal” value is listed as “more than 2.5 fold”. Besides, in data set [2], the “selectivity for ADP compared to other adenosine nucleoside derivatives (AMP, ATP, cAMP)” value is on record as “highly selective for ADP”. In data set [3] (SPA competition, KD estimated from IC50), the “KD for ATP relative to KD for ADP” value is reported as “at least 70 fold”. The “selectivity for ADP over ATP relative to what preliminary studies indicated” value in data set [3] (after column purification of ATP) is given as “approximately 4 fold”. Besides, in data set [4], the “KD values of other nucleoside derivatives and mimetics relative to KD for ADP” value is reported as “more than 300 fold”.
